Data from US9304127B2, “Anti-adrenomedullin (ADM) antibody or anti-ADM antibody fragment for use in therapy” (ADRENOMED AG, priority 2011, dated 2016).

Target: T1, hADM (Homo sapiens, UniProt P35318)
T1 construct: comprises the amino acids 95 to 146 of pre-proADM; host or cells: added to human citrate plasma
T1 sequence (P35318 95-146): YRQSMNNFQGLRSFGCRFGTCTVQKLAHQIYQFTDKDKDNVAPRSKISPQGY
Assay: Stability of human Adrenomedullin in human citrate plasma (hADM immunoassay)
Type: in vitro ADME
Details: 24° C., hADM 10 nM, NT-H 100 μg/ml

half life of hADM in the presence of NT-H: 18.3 h
B1: NT-H: murine monoclonal antibody raised against human ADM region 1-21 (SEQ ID: 15) (antibody, V domains shown)
VH: QVQLQQSGAELMKPGASVKISCKATGYTFSRYWIEWVKQRPGHGLEWIGEILPGSGSTNYNEKFKGKATITADTSSNTAYMQLSSLTSEDSAVYYCTEGYEYDGFDYWGQGTTLTVSS
VL: DVLLSQTPLSLPVSLGDQATISCRSSQSIVYSNGNTYLEWYLQKPGQSPKLLIYRVSNRFSGVPDRFSGSGSGTDFTLKISRVEAEDLGVYYCFQGSHIPYTFGGGTKLEIK
